Measured values published in publication PMC7287080, “Distinct pre-initiation steps in human mitochondrial translation” (Nature Communications, 2020).

Molecular target: mitoribosomal protein uS12m (human (endogenous in HEK293T), UniProt O15235 30-138)
Experiment: cryo-EM structure; recombinant mtIF2 (1 µM) preincubated with GDPNP (2.5 mM), added to the mtIF3-bound mtSSU eluate with fMet-tRNA (1 µM) and MT-CO2 mRNA (1 µM), 30 min at room temperature, buffer A (25 mM HEPES-KOH pH 7.5, 5.0 mM Mg(OAc)2, 100 mM KCl, 0.05% β-DDM)
Conditions: both partners purified

B1: recombinant human mtIF2 (amino acids 38-727) (natural protein)
chain: SSAYPVWTAQLCAWPWPTDVLTGAALSQYRLLVTKKEEGPWKSQLSSTKSKKVVEVWIGMTIEELARAMEKNTDYVYEALLNTDIDIDSLEADSHLDEVWIKEVITKAGMKLKWSKLKQDKVRKNKDAVRRPQADPALLTPRSPVVTIMGHVDHGKTTLLDKFRKTQVAAVETGGITQHIGAFLVSLPSGEKITFLDTPGHAAFSAMRARGAQVTDIVVLVVAADDGVMKQTVESIQHAKDAQVPIILAVNKCDKAEADPEKVKKELLAYDVVCEDYGGDVQAVPVSALTGDNLMALAEATVALAEMLELKADPNGPVEGTVIESFTDKGRGLVTTAIIQRGTLRKGSVLVAGKCWAKVRLMFDENGKTIDEAYPSMPVGITGWRDLPSAGEEILEVESEPRAREVVDWRKYEQEQEKGQEDLKIIEEKRKEHKEAHQKAREKYGHLLWKKRSILRFLERKEQIPLKPKEKRERDSNVLSVIIKGDVDGSVEAILNIIDTYDASHECELELVHFGVGDVSANDVNLAETFDGVIYGFNVNAGNVIQQSAAKKGVKIKLHKIIYRLVEDLQEELSSRLPCAVEEHPVGEASILATFSVTEGKKKVPVAGCRVQKGQLEKQKKFKLTRNGHVIWKGSLTSLKHHKDDISIVKTGMDCGLSLDEDNMEFQVGDRIVCYEEKQIQAKTSWDPGF
notes: mitochondrial translation initiation factor 2 (mtIF2), human, mature form, amino acids 38-727, codon-optimised construct in pET-24b; also called mtIF2-GDPNP; source: E. coli Rosetta 2, purified (His-Select Ni2+ resin, Superdex 200)
  binding result: binds
